In the supplement of paper PMC9170038:

Test system: MS2 coat protein
Assay: apparent KD of MS2 coat protein; designed switch direction (-1 OFF switch, 1 ON switch): -1; higher = weaker reporter binding
Procedure, shortened: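 On Illumina chips, designed RNA switches with common flanks were made by stalled E. coli RNA polymerase. Titrations with SNAP-549-labelled MS2 coat protein, doubling from 0.7 or 1.5 nM to 3 µM, were done with no input, with 200 uM small-molecule ligand, or with an oligonucleotide input. Apparent KD is the median per design over clusters, from curve fits of normalised cluster fluorescence.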

[1] = Eterna round: R95, input ligand: microRNA oligo, concentration not stated
[2] = input ligand: microRNA oligo, concentration not stated
[3] = Eterna round: R95, input ligand: FMN 200 uM
[4] = Eterna round: R95, input ligand: none

Sequence | apparent KD of MS2 coat protein [1] [nM] | apparent KD of MS2 coat protein (input ligand: FMN 200 uM) [nM] | apparent KD of MS2 coat protein (input ligand: none) [nM] | further results
GAGUGACAUGAGGAUCACCCAUGUGAGGAUAUCGGACGGACCAAGUUAACAUCCGCCGCGAGAAGGCACAUCGG [Exclusion 1 V23] (puzzle: Exclusion 1) | 104 | – | – | –
GGAUCGAAUGUGAGGAUAUACCUAUGGAUACAUAGGUAGAAGGCACAUGAGGAUCACCCAUGUCCUAACGGUCC [Eli bmx4 4.14] (Eterna round: R97, puzzle: Brourd's mod of Exclusion 4) | – | 479 | 347 | –
ACAUGUUGCGCAGGAUAUGGGACACAUGAGGAUCACCCAUGUGGUUACAUGUCUUACCAAGCGUCCCAGAAGGGUGUGAACAUG [Ex NG2 #32] (Eterna round: R96, puzzle: Exclusion NG 2) | – | 26 | 20.3 | apparent KD of MS2 coat protein [2]: 16.5 nM
AUCAUGCAGUAGGAUAUCGAUCCACAAUAUGAACGAGAAGGGCUGACAUGAGGAUCACCCAUGUGCGUCCGAAG [Becebe] (Eterna round: R97, puzzle: Exclusion 6) | – | 16.7 | 19 | –
CCUCUACAUGAGGAUCACCCAUGUGAGGAUAUCUCGGAACAACCACUUAAGGCACUCCAGAGAAGGCACGUGUA [Onsote] (puzzle: Exclusion 1) | 15.5 | – | – | –
GAUAGAGAGCAGGAUAUCUUAGAUAUGUAAUAUAGAGAAGGGCUCACAUGAGGAUCACCCAUGUGGUCCUAGAU [JL Dibiri mod 14] (puzzle: Exclusion 6) | 15.9 | – | – | apparent KD of MS2 coat protein [3]: 94 nM; apparent KD of MS2 coat protein [4]: 16.1 nM
AUAAUUUAAGUGAGGAUAUACCUAUGGAAACAUAGGUAGAAGGCACAUGAGGAUCACCCAUGUUUUUACACAAA [Fiskers BMX 4 - 2] (puzzle: Brourd's mod of Exclusion 4) | 18.1 | – | – | –
UGUGAGCUAGGAUAUGCUUUGGGCUCGCUUUCCUUCGAUAAACUUGAGGAUCACCCAAGUAGAAGGAGCUUGCA [Mod 31 - Jieux - Exclusion 2] (Eterna round: R97, puzzle: Exclusion 2) | – | 39.6 | 20.4 | –
UCGCUCCGUGUAGGAUAUCGCCGUUCUAUUCGGCGAGAAGGACAUGAGGAUCACCCAUGUAUGUUAUUAUCACGUGUGGCGCGC [Design 55] (Eterna round: R96, puzzle: Exclusion NG 1) | – | 36 | 20.6 | apparent KD of MS2 coat protein [2]: 14 nM
UACUGGACAGGAUAUGUUCUUGAGCACUUGAGGAUCACCCAAGUCAUCAAGAACUCAGGCACAGAAGGGUUUAUGG [salish99_ex5_r4_006] (Eterna round: R97, puzzle: Exclusion 5) | – | 25.5 | 14.8 | –
GUAGAGUCAGGAUAUACAAGAUCGAUAGAUCAAAGACCCAUACAUGAGGAUCACCCAUGUAGAAGGGACUCUAC [Mat - Exclusion 2 - Eli Mod - D11] (Eterna round: R97, puzzle: Exclusion 2) | – | 23 | 18.7 | –
GAGAGCUGAGGAUAUACAUGAGGAUCACCCAUGUACCACCUUGCCGGCACAGAUCCUUGUAGAAGGCGGCUCUA [Eternabot (L2) Solution 57] (Eterna round: R97, puzzle: Exclusion 3) | – | 51.3 | 161 | –
GAUUGAGAGCAGGAUAUCAUAGAAAUGUAUGAAUGAGAAGGGCUCACAUGAGGAUCACCCAUGUGGUCCUAGAU [JL Dibiri mod 18] (puzzle: Exclusion 6) | 21.9 | – | – | –
AGACACUUAGGAUAUCAGGCAAUGCACAUGAGGAUCACCCAUGUGGUCUUGGUCCGGGACUGAGAAGGAAGAGUCC [EX5 B.10] (Eterna round: R97, puzzle: Exclusion 5) | – | 20.1 | 19 | –
GAAGAGUGAGGAUAUACAUGAGGAUCACCCAUGUUAACCUUCUACAGCAUGGACUCGAGUAGAAGGCGCCAAGA [Eternabot (Original) Solution 21] (Eterna round: R97, puzzle: Exclusion 3) | – | 20.3 | 25.8 | –
UAGGAACGAGGAUAUACACCUGCAAGUGGUGUGGGUACACCACAUGAGGAUCACCCAUGUAGAAGGCGUACCAA [Lelebi] (Eterna round: R97, puzzle: Exclusion 2) | – | 57.3 | 12.3 | –
AUACCCAGAGGAUAUGCCGCUGGGUGCCCUCUGCAUAAAACACUUGAGGAUCACCCAAGUAGAAGGCUGGGCUC [Leiseses] (Eterna round: R97, puzzle: Exclusion 2) | – | 173 | 78.1 | –
CCGGAAAGGAAGGAUAUGCUAGACGAAAGUCUAGCAGAAGGUCCUACAUGAGGAUCACCCAUGUGGUCCUCCGG [Eli x6 4.06] (Eterna round: R97, puzzle: Exclusion 6) | – | 298 | 1470 | –

Sequence | apparent KD of MS2 coat protein [1] [nM] | apparent KD of MS2 coat protein (input ligand: FMN 200 uM) [nM] | apparent KD of MS2 coat protein (input ligand: none) [nM] | further results
UAUACCACAGUUAGGAUAUUCUAAGUAGUAGCUAAGAAGAAGGAACAUGAGGAUCACCCAUGUGGAGCCAGCGU [Eternabot (L1) Solution 99] (Eterna round: R97, puzzle: Brourd's mod of Exclusion 4) | – | 45.3 | 18.1 | –
AGCCCUGCAGGAUAUGCCCGGGAUAACAUGAGGAUCACCCAUGUGACCGAUUGUUAUCCUGCAGAAGGGCUAGGGA [JL-EX5-4.11 ViennaUCT mod] (Eterna round: R97, puzzle: Exclusion 5) | – | 126 | 49 | –
AGGUGUAGGUAAGGAUAUAUCUAAAACCACAUGAGGAUCACCCAUGUAGCGGGUAUCUUCGUGAGAUAGAAGGUGCACGCCGAA [Atbiasori] (Eterna round: R96, puzzle: Exclusion NG 2) | – | 494 | 308 | apparent KD of MS2 coat protein [2]: 269 nM
GUAGGGUCAGGAUAUACUGGCUGAGGGAUGUAUUGUAGUUGGUAGAAGGGACAUGAGGAUCACCCAUGUAAGAA [JR_Exclu4_Sub056] (puzzle: Exclusion 4) | 31.6 | – | – | –
ACAAGCUCUUUGCAUCUUAGUUUUGUUGCUUCGUAUGUAACAUGAGGAUCACCCAUGUAAGACUGAUGUCGUCUUUU [JR_SV3TOV2_Sub087] (puzzle: Sensor v3, turn-off variant 2) | 30 | – | – | apparent KD of MS2 coat protein [3]: 43.8 nM; apparent KD of MS2 coat protein [4]: 48.2 nM
AGAGUGGAGACAGGAUAUGAGAAUAGAUAGAAAUCAGAAGGGUCACAUGAGGAUCACCCAUGUAAAGUCUUGAGGAUGAGUGAU [Prohibition 1 - Jieux - Exclusion NG1] (Eterna round: R96, puzzle: Exclusion NG 1) | – | 156 | 81.7 | apparent KD of MS2 coat protein [2]: 65.3 nM
GUCGUGCGGCUUUGCUGUGCGGGUACAUGAGGAUCACCCAUGUAGGAUAUGGUGCGCUUUGCGUGCCAGAAGGGCGUGCGUUGG [salish99_ExNG3_r04_010] (Eterna round: R96, puzzle: Exclusion NG 3) | – | 45.7 | 36.4 | apparent KD of MS2 coat protein [2]: 28 nM
UUCCUCUUAACAUGAGGAUCACCCAUGUAUUAUUUGGUAAUUGAGGAUAUAUUUUUAAUGUUUAUAUAGAAGGCAAAUACAGUU [JR_ExcNG3_Sub094] (Eterna round: R96, puzzle: Exclusion NG 3) | – | – | – | apparent KD of MS2 coat protein [2]: 36.1 nM
GAGAGAAUCUAGGAUAUAUCAAGAGAAGGAGAGAUAGAAGGAGGGACAUGAGGAUCACCCAUGUCUUCGUGUAG [Default title] (Eterna round: R97, puzzle: Exclusion 6) | – | 15.6 | 16 | –
CCUUGACAUGAGGAUCACCCAUGUUAGGAUAUAACAUUUGACACUACAGUAUGAAGUGUUAGAAGGGAUAUGGG [-22.5, -21 kcal, A 32%] (Eterna round: R97, puzzle: Exclusion 1) | – | 39.4 | 29.8 | –
GAGUAGGGAGGAUAUACGUGCUCAAUCCCGCGAAGCGGGAAACAUGAGGAUCACCCAUGUAGAAGGCCCAUAAA [Inceveus] (puzzle: Exclusion 2) | 171 | – | – | apparent KD of MS2 coat protein [3]: 88.4 nM; apparent KD of MS2 coat protein [4]: 185 nM
UUUUUGUGAGGAUAUCAGUAGUAAAUAAAUAAAAUUACUACUGAGAAGGCACAUGAGGAUCACCCAUGUUCCUU [salish99_ex3_r3_090] (puzzle: Exclusion 4) | 14 | – | – | –
AAUAACAGAGGAUAUGCGAAUAAAUAAAACUUUUUUUUUUAACAUGAGGAUCACCCAUGUAGAAGGCUGAUAUU [Ex2 #21] (Eterna round: R97, puzzle: Exclusion 2) | – | 35.6 | 37 | –
CGCCGAGUGUUAGGAUAUUACAAGCAUAAGCGGUAAGAAGGAACAUGAGGAUCACCCAUGUACUGUCCCAUCGGGACAGGUUUC [Qule] (Eterna round: R96, puzzle: Exclusion NG 1) | – | 292 | 76.8 | apparent KD of MS2 coat protein [2]: 44.3 nM
AAAUAAUAGAUAAAAUAAAACAUGAGGAUCACCCAUGUAGGCUGAUGAGGGUGAAACAAGCUUUUUGCUCGUCUUAU (puzzle: Sensor v3, turn-off variant 1) | 560 | – | – | apparent KD of MS2 coat protein [3]: 154 nM; apparent KD of MS2 coat protein [4]: 197 nM
GAAUAGGCAGGAUAUACAUGAGGAUCACCCAUGUGCUUGCGAUCGGCAAGCGAACAACGUAGAAGGGCCUUAAC [ChP 13.04.2015 #13] (puzzle: Exclusion 3) | 15.8 | – | – | –
UCGCUCCGUGUAGGAUAUCGUUGUAUUCUGCGGCGAGAAGGACAUGAGGAUCACCCAUGUAUGUUAUUAUCACGCGUGGCGCAA [Design 67] (Eterna round: R96, puzzle: Exclusion NG 1) | – | – | – | apparent KD of MS2 coat protein [2]: 13.9 nM
ACAUUCUGAGGAUAUGUGCGCACUGACAUGAGGAUCACCCAUGUCCGAAUGUCCGAGACGACAGAAGGCAGUGAAU [Eternabot (L2) Solution 72] (Eterna round: R97, puzzle: Exclusion 5) | – | 355 | 101 | –
